The source of these data is patent US20140308287A1 (SEA LANE BIOTECHNOLOGIES, published 2014).

Experiment [1] has as its target T1, human ErbB3-Fc (R&D Systems) (human, UniProt P21860 20-643).
T1 construct: Bought protein; also called wild-type ErbB3-Fc fusion; immobilized ErbB3; not shown: Fc part of the bought fusion protein; not described
The experiment is described as follows: ELISA on ErbB3-Fc (Example 42); format of the parent not stated, the variants were soluble monovalent Sabs. A general note: An ELISA detects its analyte on a solid surface through an enzyme-linked reagent.

In experiment [2] the target is T1, human ErbB3-Fc (R&D Systems). The experiment is described as follows: ELISA, SgG on plate-coated human ErbB3-Fc. On the procedure: (§1) Binding was detected using a biotinylated antibody that specifically recognizes VpreB, followed by streptavidin HRP. Detection used a colorimetric HRP substrate. Data was analyzed via using GraphPad Prism.
Experiment [3] deals with T2, murine ErbB3-Fc (R&D Systems) (mouse, UniProt Q61526 20-641).
T2 construct: Bought protein; also called mouse ErbB3; not shown: Fc part of the bought fusion protein; not described
T2 sequence (Q61526 20-641 limits assumed): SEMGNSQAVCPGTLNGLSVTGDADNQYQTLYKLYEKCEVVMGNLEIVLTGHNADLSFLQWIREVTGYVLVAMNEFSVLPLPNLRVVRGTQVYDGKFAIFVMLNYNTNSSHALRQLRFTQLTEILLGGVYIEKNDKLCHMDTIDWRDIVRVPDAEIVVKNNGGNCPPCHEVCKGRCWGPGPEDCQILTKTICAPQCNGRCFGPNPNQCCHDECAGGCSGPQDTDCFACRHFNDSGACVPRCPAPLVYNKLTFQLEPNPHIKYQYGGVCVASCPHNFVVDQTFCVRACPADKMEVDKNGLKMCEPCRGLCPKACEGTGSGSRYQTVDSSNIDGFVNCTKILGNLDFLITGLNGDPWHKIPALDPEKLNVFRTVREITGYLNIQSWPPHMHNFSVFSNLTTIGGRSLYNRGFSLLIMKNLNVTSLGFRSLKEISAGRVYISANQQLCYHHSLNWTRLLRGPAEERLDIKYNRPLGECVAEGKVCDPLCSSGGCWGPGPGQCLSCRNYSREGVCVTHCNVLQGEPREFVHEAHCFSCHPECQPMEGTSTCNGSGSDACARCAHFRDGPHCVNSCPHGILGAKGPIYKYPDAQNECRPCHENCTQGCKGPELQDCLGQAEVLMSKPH
The experiment is described as follows: ELISA, SgG on plate-coated murine ErbB3-Fc. The procedure:
(§2) Binding was detected using a biotinylated antibody that recognizes VpreB, followed by strepatvidin HRP. Detection used a colorimetric HRP substrate. Data was analyzed via using GraphPad Prism.

The target in another experiment is T3, ErbB2-Fc (human, UniProt P04626 23-652).
T3 construct: The sentence reads 'human ErbB3-Fc, EGFR-Fc (ErbB1) or ErbB2-Fc'; 'human' is read as applying to all three; not shown: Fc part; not described
The experiment is described as follows: ELISA on plate-coated ErbB2-Fc, detection biotinylated anti-VpreB (Example 52). An excerpt: (§3) ELISA plates were coated with human ErbB3-Fc, EGFR-Fc (ErbB1) or ErbB2-Fc. Various concentrations of the indicated anti-ErbB3 SBPs were then allowed to bind to the coated wells. Binding was detected using a biotinylated antibody that specifically recognizes VpreB, followed by streptavidin HRP. Detection used a colorimetric HRP substrate.

Experiment [4] concerns the target T1, human ErbB3-Fc (R&D Systems). The experiment is described as follows: ELISA, inhibition of binding of NRG1-beta 1 ECD (0.26 ug/ml) to plate-coated human ErbB3-Fc. The procedure: ELISA plates were coated with human ErbB3-Fc. Various concentrations of the indicated anti-ErbB3 SBPs were then allowed to bind to the coated wells. […] Detection used a colorimetric HRP substrate.
Data was analyzed using GraphPad Prism.

In another experiment the target is T4, EGFR-Fc (ErbB1) (human, UniProt P00533 25-645).
T4 construct: The sentence reads 'human ErbB3-Fc, EGFR-Fc (ErbB1) or ErbB2-Fc'; 'human' is read as applying to all three; not shown: Fc part; not described
The experiment is described as follows: ELISA on plate-coated EGFR-Fc (ErbB1), detection biotinylated anti-VpreB (Example 52).
Text: as §3

Experiment [5] concerns the target T5, human ErbB3 expressed on the surface of cells (BxPC-3 and other human tumor cell lines) (human, UniProt P21860 20-1342).
T5 construct: SKBR3, PathHunter reporter cells in functional assays; The leader 1-19 is not part of the mature protein; also called cell surface ErbB3; cell surface receptor
The experiment is described as follows: flow cytometry on BxPC-3 cells. The procedure:
(§4) Briefly, BxPC-3 cells were first dissociated using 0.25% trypsin, 0.2% EDTA, washed in cold PBS, 1% BSA, and then resuspended at 3×10⁶ cells/ml. SgGs (described above) were added at the indicated concentrations in Staining Buffer (Becton Dickinson) and incubated at 4 degrees C. for 1 hour. Next the cells were washed in stain buffer and resuspended with 1:133 diluted biotinylated goat anti-human IgG (Southern Biotech #2040-08) and incubated at 4 degrees C. for 1 hour. Cells were then washed in stain buffer and resuspended with Alexa488 conjugated streptavidin (Invitrogen #S11223) and incubated at 4 degrees C. for 1 hour. One microliter of the vital stain 7AAD (Invitrogen #A1310) was added during the last 15 minutes of incubation. Cells were washed with stain buffer and analyzed on a flow cytometer.
(§5) Thereafter only signals arising from this gated population were analyzed. Geometric mean fluorescence intensity for cells stained using the indicated concentrations of SBPs were determined using FLOWJO analysis software and EC50s were calculated using Graphpad Prism.
A general note: In flow cytometry, cells or beads pass a laser one at a time.

The target of experiment [6] is T1, human ErbB3-Fc (R&D Systems). The experiment is described as follows: ELISA on plate-coated human ErbB3-Fc, detection biotinylated anti-VpreB and streptavidin HRP (Example 52).
Text: as §3

Experiment [7] concerns the target T5, human ErbB3 expressed on the surface of …. The experiment is described as follows: flow cytometry on BxPC-3 cells, geometric mean fluorescence intensity. On the procedure:
as §4, §5

The target in experiment [8] is T1, human ErbB3-Fc (R&D Systems). The experiment is described as follows: ELISA on plate-coated human ErbB3-Fc with 1.85 nM NRG1-beta 1 extracellular domain added before the SBP (+ NRG), detection biotinylated anti-VpreB (Example 43); axis labelled log [Sab] nM. The text has this:
(§6) The resulting bound SgGs were detected using a biotinylated anti-VpreB, followed by streptavidin HRP colorimetric detection.

The target of experiment [9] is T2, murine ErbB3-Fc (R&D Systems). The experiment is described as follows: ELISA, SgG on plate-coated murine ErbB3-Fc, anti-VpreB detection. The procedure:
as §2

The target of experiment [10] is T1, human ErbB3-Fc (R&D Systems). The experiment is described as follows: ELISA, SgG on plate-coated human ErbB3-Fc, anti-VpreB detection. On the procedure:
as §1

The target is the same in experiment [11]. The experiment is described as follows: ELISA on plate-coated human ErbB3-Fc without NRG, detection biotinylated anti-VpreB and streptavidin HRP (Example 43); axis labelled log [Sab] nM, text speaks of SgGs.
Text: as §6

Experiment [12] shares this target. The experiment is described as follows: ELISA on ErbB3-Fc (Example 42); format of the parent not stated, the variants were soluble monovalent Sabs. The source holds these as a separate data set.

B1: 2817-C01 (Parent) (other)
VH: EVQLLESGGGLVQPGGSLRLSCAASGFTFSTYAMNWVRQAPGKGLEWVALISSGGSYKYYADSVKGRFTISRDNSKNTLYLQMNSLRAEDTAVYYCAKDNFILLNSWFDYWGQGTLVTVSS
surrogate light: QPVLHQPPAMSSALGTTIRLTCTLRNDHDIGVYSVYWYQQRPGHPPRFLLRYFSQSDKSQGPQVPPRFSGSKDVARNRGYLSISELQPEDEAMYYCAMGARSSVTHVFGSGTQLTVLSQPKATPSVTLFPPSSEELQANKATLVCLMNDFYPGILTVTWKADGTPITQGVEMTTPSKQSNNKYAASSYLSLTPEQWRSRRSYSCQVMHEGSTVEKTVAPAECS
As for B1, the EC50 in experiment [1] worked out at 0.055 nM.

B2: 2716-F05 surroglobulin (SgG) (other)
VH: EVQLLESGGGLVQPGGSLRLSCAASGFTFSNYWMHWVRQAPGKGLEWVALISGGGGNTYYADSVKGRFTISRDNSKNTLYLQMNSLRAEDTAVYYCAKDNEKNLYTWLDYWGQGTLVTVSS
light: QPVLHQPPAMSSALGTTIRLTCTLRNDHDIGVYSVYWYQQRPGHPPRFLLRYFSQSDKSQGPQVPPRFSGSKDVARNRGYLSISELQPEDEAMYYCAMGARSSVTHVFGSGTQLTVLSQPKATPSVTLFPPSSEELQANKATLVCLMNDFYPGILTVTWKADGTPITQGVEMTTPSKQSNNKYAASSYLSLTPEQWRSRRSYSCQVMHEGSTVEKTVAPAECS
notes: also called anti-ErbB3 SgG
On to B2, for which the EC50 in experiment [2] stood at 0.049 nM; in experiment [3], 0.095 nM; in [5], 0.04 nM; in experiment [7], 0.04 nM; in [9], 0.06 nM; in experiment [10] it was 0.05 nM. Besides, the binding result with ErbB2-Fc and in the experiment with EGFR-Fc (ErbB1) was “no binding (tested: 1000 nM)” each time. This molecule gave an IC50 in experiment [4] of 0.52 nM. Besides, the “EC50 (read off the curve)” value in experiment [6] is roughly 0.08 nM; in experiment [8], roughly 0.7 nM; in [11] it was roughly 0.5 nM.

B3: 2817-C01 surroglobulin (SgG) (other)
VH: EVQLLESGGGLVQPGGSLRLSCAASGFTFSTYAMNWVRQAPGKGLEWVALISSGGSYKYYADSVKGRFTISRDNSKNTLYLQMNSLRAEDTAVYYCAKDNFILLNSWFDYWGQGTLVTVSS
light: QPVLHQPPAMSSALGTTIRLTCTLRNDHDIGVYSVYWYQQRPGHPPRFLLRYFSQSDKSQGPQVPPRFSGSKDVARNRGYLSISELQPEDEAMYYCAMGARSSVTHVFGSGTQLTVLSQPKATPSVTLFPPSSEELQANKATLVCLMNDFYPGILTVTWKADGTPITQGVEMTTPSKQSNNKYAASSYLSLTPEQWRSRRSYSCQVMHEGSTVEKTVAPAECS
notes: also called anti-ErbB3 SgG
As for B3, the EC50 in experiment [2] is 0.041 nM; in [5], 0.138 nM; in experiment [7], 0.12 nM; in [10] it was 0.04 nM. Moreover, the binding result with ErbB2-Fc and with EGFR-Fc (ErbB1) was “no binding (tested: 1000 nM)” each time. Besides, the IC50 in experiment [4] was 0.99 nM. Further, the “EC50 (read off the curve)” value was roughly 0.05 nM in experiment [6], roughly 0.3 nM in experiment [8] and roughly 0.2 nM in experiment [11].

B4: 2716-F05 (Parent) (other)
VH: EVQLLESGGGLVQPGGSLRLSCAASGFTFSNYWMHWVRQAPGKGLEWVALISGGGGNTYYADSVKGRFTISRDNSKNTLYLQMNSLRAEDTAVYYCAKDNEKNLYTWLDYWGQGTLVTVSS
light: QPVLHQPPAMSSALGTTIRLTCTLRNDHDIGVYSVYWYQQRPGHPPRFLLRYFSQSDKSQGPQVPPRFSGSKDVARNRGYLSISELQPEDEAMYYCAMGARSSVTHVFGSGTQLTVLSQPKATPSVTLFPPSSEELQANKATLVCLMNDFYPGILTVTWKADGTPITQGVEMTTPSKQSNNKYAASSYLSLTPEQWRSRRSYSCQVMHEGSTVEKTVAPAECS
On to B4, for which the EC50 in [12] came out at 0.22 nM.

One may read the EC50 as the concentration giving half of the maximal effect. By IC50 is commonly meant the concentration at which inhibition is half-maximal. Low values mean inhibition by little substance, high ones a need for much substance. In general, EC50 (read off the curve) refers to the midpoint of the concentration-response curve. Read a high EC50 (read off the curve) as a less potent agent.
